Laboratory results taken from US20240352128A1 (published 2024).

T1: human CD16b as FACS target of FIGS. 6B-10B (human, UniProt O75015 17-200)
T1 chain: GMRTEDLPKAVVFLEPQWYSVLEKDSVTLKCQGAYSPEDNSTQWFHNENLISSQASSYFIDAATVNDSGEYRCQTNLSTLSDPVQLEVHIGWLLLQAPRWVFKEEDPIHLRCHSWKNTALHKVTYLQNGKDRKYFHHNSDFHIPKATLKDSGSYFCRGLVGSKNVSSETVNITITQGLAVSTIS

T2: cynomolgus monkey CD16a on HEK293 cells expressing cyno monkey CD16a (constructed by Genscript) (cynomolgus monkey, UniProt Q8SPW2 17-254)
T2 chain: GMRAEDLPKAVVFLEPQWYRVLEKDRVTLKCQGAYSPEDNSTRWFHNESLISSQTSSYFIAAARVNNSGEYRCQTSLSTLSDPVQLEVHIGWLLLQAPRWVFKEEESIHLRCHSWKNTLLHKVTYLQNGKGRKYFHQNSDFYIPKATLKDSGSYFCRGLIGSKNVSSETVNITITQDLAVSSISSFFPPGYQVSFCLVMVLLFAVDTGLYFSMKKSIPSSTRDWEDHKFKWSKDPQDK


Legend:
[1] = biological target: human CD16a on HEK293 cells expressing human CD16a (constructed by Genscript) (human, UniProt P08637 17-254); assay: FACS
Chain of human CD16a on HEK293 cells expressing human CD16a (constructed by Genscript) (P08637 17-254): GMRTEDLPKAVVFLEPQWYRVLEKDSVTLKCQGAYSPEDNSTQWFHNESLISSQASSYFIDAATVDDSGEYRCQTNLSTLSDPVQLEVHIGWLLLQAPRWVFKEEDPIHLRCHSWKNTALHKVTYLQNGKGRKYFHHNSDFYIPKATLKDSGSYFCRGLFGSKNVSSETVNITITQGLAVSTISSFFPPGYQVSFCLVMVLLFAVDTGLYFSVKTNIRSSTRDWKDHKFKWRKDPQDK

[2] = biological target: T1, human CD16b as FACS target of FIGS. …; assay: FACS
[3] = biological target: T2, cynomolgus monkey CD16a on HEK293 cells …; assay: FACS
[4] = biological target: recombinant human CD16a-His protein (Acro Biosystems; catalog #: CDA-H52S1) (human, UniProt P08637 17-208); assay: ELISA (OD450; legend says FACS)
Chain of recombinant human CD16a-His protein (Acro Biosystems; catalog #: CDA-H52S1) (P08637 17-208): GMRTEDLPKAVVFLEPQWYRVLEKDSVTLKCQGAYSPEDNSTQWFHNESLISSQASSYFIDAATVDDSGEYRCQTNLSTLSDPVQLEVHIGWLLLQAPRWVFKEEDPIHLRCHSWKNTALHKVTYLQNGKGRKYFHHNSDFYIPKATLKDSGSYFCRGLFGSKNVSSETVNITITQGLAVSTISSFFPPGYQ

Binder	EC50 [1]	EC50 [2]	EC50 [3]	EC50 [4]
pTT5-AR8820-2.3mIgG1Fc (Fc fusion) VHH-Fc: EVQLVESGGGLIQPGGSLRLSCAASGSSISRYAMAWYRQAPGKGRELVSVVRITGSPIYADFVGGRFTISRDNSKNTLYLQMNSLRAEDTAVYYCNRGNFNTYTRRYSPSETWGQGTTVTVSSVPRDCGCKPCICTVPEVSSVFIFPPKPKDVLTITLTPKVTCVVVDISKDDPEVQFSWFVDDVEVHTAQTQPREEQFNSTFRSVSELPIMHQDWLNGKEFKCRVNSAAFPAPIEKTISKTKGRPKAPQVYTIPPPKEQMAKDKVSLTCMITDFFPEDITVEWQWNGQPAENYKNTQPIMDTDGSYFVYSKLNVQKSNWEAGNTFTCSVLHEGLHNHHTEKSLSHSPGK	0.000332 µM	~167 µM	0.000745 µM	
pTT5-AR8820-1.1mIgG1Fc (Fc fusion) heavy: QVQLVESGGGVVQPGGSLRLSCAASGSSISRYAMAWYRQAPGKGRELVAVVRITGSPIYADFVGGRFTISRDNSKNTLYLQMNSLRAEDTAVYYCATGNFNTYTRRYSPSETWGKGTTVTVSSVPRDCGCKPCICTVPEVSSVFIFPPKPKDVLTITLTPKVTCVVVDISKDDPEVQFSWFVDDVEVHTAQTQPREEQFNSTFRSVSELPIMHQDWLNGKEFKCRVNSAAFPAPIEKTISKTKGRPKAPQVYTIPPPKEQMAKDKVSLTCMITDFFPEDITVEWQWNGQPAENYKNTQPIMDTDGSYFVYSKLNVQKSNWEAGNTFTCSVLHEGLHNHHTEKSLSHSPGK	0.00038 µM	~65.6 µM	0.00092 µM	
pTT5-AR8804-3.2 mIgG1Fc (Fc fusion) heavy: QVQLVESGGGVVQPGGSLRLSCAASGSSVSRYAMAWYRQAPGKGREWVAVVRITGIPIYADFVKGRFTISRDNSKNTLYLQMNSLRAEDTAVYYCATGNFNTYTRRYSPSETWGKGTTVTVSSVPRDCGCKPCICTVPEVSSVFIFPPKPKDVLTITLTPKVTCVVVDISKDDPEVQFSWFVDDVEVHTAQTQPREEQFNSTFRSVSELPIMHQDWLNGKEFKCRVNSAAFPAPIEKTISKTKGRPKAPQVYTIPPPKEQMAKDKVSLTCMITDFFPEDITVEWQWNGQPAENYKNTQPIMDTDGSYFVYSKLNVQKSNWEAGNTFTCSVLHEGLHNHHTEKSLSHSPGK	0.000444 µM	~195 µM	0.000928 µM	
pTT5-AR8804-3.3mIgG1Fc (Fc fusion) heavy: QVQLVESGGGVVQPGGSLRLSCAASGSSVSRYAMAWYRQAPGKGRELVAVVRITGIPIYADFVKGRFTISRDNSKNTLYLQMNSLRAEDTAVYYCNTGNFNTYTRRYSPSETWGKGTTVTVSSVPRDCGCKPCICTVPEVSSVFIFPPKPKDVLTITLTPKVTCVVVDISKDDPEVQFSWFVDDVEVHTAQTQPREEQFNSTFRSVSELPIMHQDWLNGKEFKCRVNSAAFPAPIEKTISKTKGRPKAPQVYTIPPPKEQMAKDKVSLTCMITDFFPEDITVEWQWNGQPAENYKNTQPIMDTDGSYFVYSKLNVQKSNWEAGNTFTCSVLHEGLHNHHTEKSLSHSPGK	0.000412 µM		0.000838 µM	
pTT5-AR8820-2.1mIgG1Fc (Fc fusion) VHH-Fc: EVQLVESGGGLIQPGGSLRLSCAASGSSISRYAMAWYRQAPGKGRELVSVVRITGSPIYADFVGGRFTISRDNSKNTLYLQMNSLRAEDTAVYYCATGNFNTYTRRYSPSETWGQGTTVTVSSVPRDCGCKPCICTVPEVSSVFIFPPKPKDVLTITLTPKVTCVVVDISKDDPEVQFSWFVDDVEVHTAQTQPREEQFNSTFRSVSELPIMHQDWLNGKEFKCRVNSAAFPAPIEKTISKTKGRPKAPQVYTIPPPKEQMAKDKVSLTCMITDFFPEDITVEWQWNGQPAENYKNTQPIMDTDGSYFVYSKLNVQKSNWEAGNTFTCSVLHEGLHNHHTEKSLSHSPGK	0.000494 µM	~7840 µM	0.000787 µM	
AR8875 sdAb fusion protein with mIgG1 Fc (Fc fusion) QVQLVESGGGLVQPGGSLRLSCAASGFTFSNYAMTWVRQAPGKGLEWVSSIDRGGSITSYADSVKGRFAISRDNAKNTMYLQMNNLRPEDTARYVCARGDSTYSRLTAAYRGQGTQVTVSSVPRDCGCKPCICTVPEVSSVFIFPPKPKDVLTITLTPKVTCVVVDISKDDPEVQFSWFVDDVEVHTAQTQPREEQFNSTFRSVSELPIMHQDWLNGKEFKCRVNSAAFPAPIEKTISKTKGRPKAPQVYTIPPPKEQMAKDKVSLTCMITDFFPEDITVEWQWNGQPAENYKNTQPIMDTDGSYFVYSKLNVQKSNWEAGNTFTCSVLHEGLHNHHTEKSLSHSPGK				0.018 µg/mL
AR8820 sdAb fusion protein with mIgG1 Fc (Fc fusion) QVKLEESGGGLVQAGGSLRLSCAASGSSISRYAMAWYRQGPGKERELVAVVRITGSPIYADFVGGRFTISRDNAKSTVLLQMNSLKPEDTAIYYCNTGNFNTYTRRYSPSETWGQGTQVTVSSVPRDCGCKPCICTVPEVSSVFIFPPKPKDVLTITLTPKVTCVVVDISKDDPEVQFSWFVDDVEVHTAQTQPREEQFNSTFRSVSELPIMHQDWLNGKEFKCRVNSAAFPAPIEKTISKTKGRPKAPQVYTIPPPKEQMAKDKVSLTCMITDFFPEDITVEWQWNGQPAENYKNTQPIMDTDGSYFVYSKLNVQKSNWEAGNTFTCSVLHEGLHNHHTEKSLSHSPGK				0.0151 µg/mL
pTT5-AR8820-1.3mIgG1Fc (Fc fusion) heavy: QVQLVESGGGVVQPGGSLRLSCAASGSSISRYAMAWYRQAPGKGRELVAVVRITGSPIYADFVGGRFTISRDNSKNTLYLQMNSLRAEDTAVYYCNTGNFNTYTRRYSPSETWGKGTTVTVSSVPRDCGCKPCICTVPEVSSVFIFPPKPKDVLTITLTPKVTCVVVDISKDDPEVQFSWFVDDVEVHTAQTQPREEQFNSTFRSVSELPIMHQDWLNGKEFKCRVNSAAFPAPIEKTISKTKGRPKAPQVYTIPPPKEQMAKDKVSLTCMITDFFPEDITVEWQWNGQPAENYKNTQPIMDTDGSYFVYSKLNVQKSNWEAGNTFTCSVLHEGLHNHHTEKSLSHSPGK	0.000384 µM		0.000772 µM	
AR8866 sdAb fusion protein with mIgG1 Fc (Fc fusion) QVKLEESGGGLVQPGGSLRLSCVASGFTFSVWTMSWVRQAPGKGLEWVSDISHSGIYTTYADSVKGRFTISRDNAKNTLWLQLNALKPEDTAVYYCAQGNRRNSMLSGTLRGQGTQVTVSSVPRDCGCKPCICTVPEVSSVFIFPPKPKDVLTITLTPKVTCVVVDISKDDPEVQFSWFVDDVEVHTAQTQPREEQFNSTFRSVSELPIMHQDWLNGKEFKCRVNSAAFPAPIEKTISKTKGRPKAPQVYTIPPPKEQMAKDKVSLTCMITDFFPEDITVEWQWNGQPAENYKNTQPIMDTDGSYFVYSKLNVQKSNWEAGNTFTCSVLHEGLHNHHTEKSLSHSPGK				0.0174 µg/mL
AR8804 sdAb fusion protein with mIgG1 Fc (Fc fusion) AVQLVDSGGGLVQAGGSLRLSCAASGSSVSRYAMAWYRQAPGKERELVAVVRITGIPIYADFVKGRFTISRDNAKNTVLLQMNSLEPEDTAIYYCNTGNFNTYTRRYSPSETWGQGTQVTVSSVPRDCGCKPCICTVPEVSSVFIFPPKPKDVLTITLTPKVTCVVVDISKDDPEVQFSWFVDDVEVHTAQTQPREEQFNSTFRSVSELPIMHQDWLNGKEFKCRVNSAAFPAPIEKTISKTKGRPKAPQVYTIPPPKEQMAKDKVSLTCMITDFFPEDITVEWQWNGQPAENYKNTQPIMDTDGSYFVYSKLNVQKSNWEAGNTFTCSVLHEGLHNHHTEKSLSHSPGK				0.0158 µg/mL
AR8776 sdAb fusion protein with mIgG1 Fc (Fc fusion) AVQLVESGGGLVQPGGSLRLSCAASGFTFSNYAMSWVRQAPGKGLEWVSSINRGGSITNYADSVKGRFAISRDNAKNTIYLQMNNLRPEDTAQYSCARGDSTYSRLSAAYRGQGTQVTVSSVPRDCGCKPCICTVPEVSSVFIFPPKPKDVLTITLTPKVTCVVVDISKDDPEVQFSWFVDDVEVHTAQTQPREEQFNSTFRSVSELPIMHQDWLNGKEFKCRVNSAAFPAPIEKTISKTKGRPKAPQVYTIPPPKEQMAKDKVSLTCMITDFFPEDITVEWQWNGQPAENYKNTQPIMDTDGSYFVYSKLNVQKSNWEAGNTFTCSVLHEGLHNHHTEKSLSHSPGK				0.0155 µg/mL
AR8887 sdAb fusion protein with mIgG1 Fc (Fc fusion) QVQLVESGGGLVQAGGSLRLSCAVSGFLYYSIGWFRQAPGKEREWVSCISRSGAGTSYANSVKGRSTISRDNDKNTVYLQMNSLKSEDTAVYYCARRATSSCTATMTRGQYDYWGQGTQVTVSSVPRDCGCKPCICTVPEVSSVFIFPPKPKDVLTITLTPKVTCVVVDISKDDPEVQFSWFVDDVEVHTAQTQPREEQFNSTFRSVSELPIMHQDWLNGKEFKCRVNSAAFPAPIEKTISKTKGRPKAPQVYTIPPPKEQMAKDKVSLTCMITDFFPEDITVEWQWNGQPAENYKNTQPIMDTDGSYFVYSKLNVQKSNWEAGNTFTCSVLHEGLHNHHTEKSLSHSPGK				0.0217 µg/mL
AR8861 sdAb fusion protein with mIgG1 Fc (Fc fusion) AVQLVDSGGGLVQPGGSLRLSCVASGFTFSIWTMSWVRQAPGKGLEWVSDISHSGLYTTYADSVKGRFTISRDNAKNTLWLQLNALKPEDTAVYYCAQGNRRTSMLSGTLRGQGTQVTVSSVPRDCGCKPCICTVPEVSSVFIFPPKPKDVLTITLTPKVTCVVVDISKDDPEVQFSWFVDDVEVHTAQTQPREEQFNSTFRSVSELPIMHQDWLNGKEFKCRVNSAAFPAPIEKTISKTKGRPKAPQVYTIPPPKEQMAKDKVSLTCMITDFFPEDITVEWQWNGQPAENYKNTQPIMDTDGSYFVYSKLNVQKSNWEAGNTFTCSVLHEGLHNHHTEKSLSHSPGK				0.0227 µg/mL
